From US20170335404A1 (REGENTS OF THE UNIVERSITY OF MINNESOTA, published 2017)

T1: recombinant human Nectin-1 extracellular domain (human, UniProt Q15223 31-355)
T1 sequence (looked up): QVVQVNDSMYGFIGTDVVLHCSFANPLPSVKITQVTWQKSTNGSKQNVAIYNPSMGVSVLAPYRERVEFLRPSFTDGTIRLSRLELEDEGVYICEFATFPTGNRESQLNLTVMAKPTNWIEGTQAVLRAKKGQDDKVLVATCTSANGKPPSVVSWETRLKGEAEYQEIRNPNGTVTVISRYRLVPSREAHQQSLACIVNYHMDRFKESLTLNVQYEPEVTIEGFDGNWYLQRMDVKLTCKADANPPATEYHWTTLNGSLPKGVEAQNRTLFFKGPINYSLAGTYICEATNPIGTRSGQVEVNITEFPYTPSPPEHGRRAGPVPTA

T2: Nectin-4 natively expressed on NIH:OVCAR5 parental cells (human, UniProt Q96NY8 32-510)
T2 construct: whole, on cells; The cells also express Nectin-1; also called NIH:OVCAR-5 cells
T2 sequence (looked up): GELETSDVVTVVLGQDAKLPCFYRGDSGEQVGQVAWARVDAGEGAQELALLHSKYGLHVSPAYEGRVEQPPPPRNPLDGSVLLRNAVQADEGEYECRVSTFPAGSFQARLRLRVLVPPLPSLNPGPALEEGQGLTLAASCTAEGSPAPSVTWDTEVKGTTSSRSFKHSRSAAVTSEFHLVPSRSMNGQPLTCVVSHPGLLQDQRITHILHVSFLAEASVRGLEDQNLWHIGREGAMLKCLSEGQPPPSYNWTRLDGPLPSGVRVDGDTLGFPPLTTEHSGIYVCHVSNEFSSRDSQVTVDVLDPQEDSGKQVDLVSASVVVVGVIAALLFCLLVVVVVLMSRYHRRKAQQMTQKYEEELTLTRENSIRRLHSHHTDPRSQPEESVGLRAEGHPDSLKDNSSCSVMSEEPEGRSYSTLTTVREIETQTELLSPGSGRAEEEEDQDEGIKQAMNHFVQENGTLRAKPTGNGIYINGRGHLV

B1: recombinant human Nectin-4 extracellular domain (receptor, UniProt Q96NY8 32-349, looked up)
chain: GELETSDVVTVVLGQDAKLPCFYRGDSGEQVGQVAWARVDAGEGAQELALLHSKYGLHVSPAYEGRVEQPPPPRNPLDGSVLLRNAVQADEGEYECRVSTFPAGSFQARLRLRVLVPPLPSLNPGPALEEGQGLTLAASCTAEGSPAPSVTWDTEVKGTTSSRSFKHSRSAAVTSEFHLVPSRSMNGQPLTCVVSHPGLLQDQRITHILHVSFLAEASVRGLEDQNLWHIGREGAMLKCLSEGQPPPSYNWTRLDGPLPSGVRVDGDTLGFPPLTTEHSGIYVCHVSNEFSSRDSQVTVDVLDPQEDSGKQVDLVSAS
notes: extracellular domain; Bought reagent, coated on microtiter plates; also called recombinant Nectin-4

Key:
[1] = target: recombinant human Nectin-1 extracellular domain (human) (UniProt Q15223); assay: cell-based or functional assay
[2] = target: full-length Nectin-4 overexpressed on NIH:OVCAR5-N4-over cells, Q96NY8; assay: cell-based or functional assay
[3] = target: T1, recombinant human Nectin-1 …; assay: cell-based or functional assay
[4] = target: T2, Nectin-4 natively expressed on …; assay: cell adhesion assay, NIH:OVCAR5 parental cells on coated microtiter plates
Protocol: Black, clear-bottom 96-well microtiter plates (Corning, Imported Costar, Corning, N.Y.) were coated with recombinant human Nectin-1 extracellular domain (R&D Systems), recombinant human Nectin-4 extracellular domain (R&D Systems), mouse laminin (Invitrogen™), or bovine serum albumin (BSA; Prohumin Diagnostic Grade, MilliPore) diluted in PBS. Covered plates were incubated overnight at 37° C. in a humidified incubator. After washing with PBS plus Ca²⁺/Mg²⁺ containing 2 mg/ml ovalbumin (Sigma-Aldrich), the plates were blocked for 1 h at 37° C. with 1% BSA in PBS without Ca²⁺/Mg²⁺. Confluent monolayers of NIH:OVCAR5 cells or NIH:OVCAR5-N4-over cells were detached with Accutase, and then filtered through a 40 μm cell strainer (BD Biosciences, San Jose, Calif.) to remove cell aggregates. The single cells were stained with CellTracker Green CMFDA (5-chlorornethylfluorescein diacetate; Invitrogen™) according to the manufacturer's protocol. After washing the plate, 30,000 cells were added to each well in 50 μl of RPMI 1640 media containing 2 mg/ml ovalbumin and allowed to adhere for 15-60 min at 37° C. Plates were vigorously washed four times and read in a BioTek Synergy fluorescent microplate reader (BioTek, Winooski, Va.). Experiments were conducted in triplicate. […]

Molecule | inhibition of adhesion of NIH:OVCAR5-N4-over cells to Nectin-1 [2] | inhibition of adhesion of NIH:OVCAR5-N4-over cells to Nectin-1 [3] | further results
mouse monoclonal antibody against human Nectin-1, R&D Systems MAB2880, clone #610835 |  |  | inhibition of cell adhesion to Nectin-1 [1]: 60%
H-NWYLQRMDVKLTCK-NH2 [N1-P20] | > 50% |  | inhibition of cell adhesion [2]: 100%
H-QARLRLRVLVPPLP-NH2 [N4-P10] |  | ≥ 50 >=50 of the printed range 50-100 % | 
B1 |  |  | binding result [4]: no binding (tested: 1 µg/well, up to 1 h)
H-WTRLDGPLPSGVRV-NH2 [N4-P22] |  | ≥ 50 >=50 of the printed range 50-100 % | 
H-HSQVVQVNDSMYGF-NH2 [N1-P1] | > 50% |  | 
H-TGNGIYINGRGHLV-NH2 [N4-P29] |  | ≥ 50 >=50 of the printed range 50-100 % | 
H-QRITHILHVSFLAE-NH2 [N4-P18] |  | ≥ 50 >=50 of the printed range 50-100 % | 
H-VNITEFPYTPSPPEHGRRA-NH2 [N1-P26] | > 50% |  | 
H-ACIVNYHMDRFKES-NH2 [N1-P17] | > 50% |  | 
